Test results as given in the RNAGym collection of RNA variant scans (doi:10.7554/elife.80360).

B1: HDV Ribozyme (parent)
chain: GGCCGGCAUGGUCCCAGCCUCCUCGCUGGCGCCGGCUGGGCAACAUUCCGAGGGGACCGUCCCCUCGGUAAUGGCGAAUGGGACCCA

Variants of: B1
Assay: self-cleavage, relative activity (ratio to wild type); higher = more cleavage; co-transcriptional
Variant GGCCGGCAUGGUCCCAGCCUCCUCGCUGGCGCCGGCUGGGCAACAUUCCGAGGGGACCGUCCCCUCGGUACUGGCGAAUCGGACCCA [A71C G80C] has a self-cleavage of 0.302.
GGCCGGCAUGGUCCCAGCCUCCUCGCUGGCGCCGGCUGGGCAACAUUCCGAGGGGACCGUCCCCUCGGUACUAGCGAAUGGGACCCA [A71C G73A] gave a self-cleavage of 0.45.
Variant GGCCGGCAUGGUCCCAGCCUCCUCGCUGGCGCCGGCUGGGCAACAUUCCGAGGGGACCGUCCCCUCGGUACUGGCGAACGGGACCCA [A71C U79C] has a self-cleavage of 0.269.
GGCCGGCAUGGUCCCAGCCUCCUCGCUGGCGCCGGCUGGGCAACAUUCCGAGGGGACCGUCCCCUCGGUCAUGGCGAUUGGGACCCA [A70C A78U] showed a self-cleavage of 0.162.
For GGCCGGCAUGGUCCCAGCCUCCUCGCUGGCGCCGGCUGGGCAACAUUCCGAGGGGACCGUCCCCUCGGUCAUGGCGAGUGGGACCCA [A70C A78G], the self-cleavage was 0.519.
GGCCGGCAUGGUCCCAGCCUCCUCGCUGGCGCCGGCUGGGCAACAUUCCGAGGGGACCGUCCCCUCGGUCAUGGAGAAUGGGACCCA [A70C C75A] gave a self-cleavage of 0.123.
GGCCGGCAUGGUCCCAGCCUCCUCGCUGGCGCCGGCUGGGCAACAUUCCGAGGGGACCGUCCCCUCGGUGAUGGCGAAUAGGACCCA [A70G G80A] showed a self-cleavage of 0.271.
In the case of GGCCGGCAUGGUCCCAGCCUCCUCGCUGGCGCCGGCUGGGCAACAUUCCGAGGGGACCGUCCCCUCGGUGAUGGCGAAUUGGACCCA [A70G G80U], the self-cleavage is reported as 0.177.
GGCCGGCAUGGUCCCAGCCUCCUCGCUGGCGCCGGCUGGGCAACAUUCCGAGGGGACCGUCCCCUCGGUUAUGGCGAAUGGGAGCCA [A70U C84G] showed a self-cleavage of 0.541.
In the case of GGCCGGCAUGGUCCCAGCCUCCUCGCUGGCGCCGGCUGGGCAACAUUCCGAGGGGACCGUCCCCUCGGUCUUGGCGAAUGGGACCCA [A70C A71U], the self-cleavage is reported as 0.791.
Variant GGCCGGCAUGGUCCCAGCCUCCUCGCUGGCGCCGGCUGGGCAACAUUCCGAGGGGACCGUCCCCUCGGUGAUGGCGAAUGGUACCCA [A70G G82U] has a self-cleavage of 0.415.
GGCCGGCAUGGUCCCAGCCUCCUCGCUGGCGCCGGCUGGGCAACAUUCCGAGGGGACCGUCCCCUCGGGCAUGGCGAAUGGGACCCA [U69G A70C] showed a self-cleavage of 1.15.
Work on GGCCGGCAUGGUCCCAGCCUCCUCGCUGGCGCCGGCUGGGCAACAUUCCGAGGGGACCGUCCCCUCGGGAAUGGCGGAUGGGACCCA [U69G A77G] yielded a self-cleavage of 1.29.
GGCCGGCAUGGUCCCAGCCUCCUCGCUGGCGCCGGCUGGGCAACAUUCCGAGGGGACCGUCCCCUCGGUCAUGGCGAAUCGGACCCA [A70C G80C] showed a self-cleavage of 0.135.
GGCCGGCAUGGUCCCAGCCUCCUCGCUGGCGCCGGCUGGGCAACAUUCCGAGGGGACCGUCCCCUCGGUCAUGGCGAAUAGGACCCA [A70C G80A] gave a self-cleavage of 0.177.
Variant GGCCGGCAUGGUCCCAGCCUCCUCGCUGGCGCCGGCUGGGCAACAUUCCGAGGGGACCGUCCCCUCGGUGAUGGCGAAUGGGAGCCA [A70G C84G] has a self-cleavage of 0.475.
Work on GGCCGGCAUGGUCCCAGCCUCCUCGCUGGCGCCGGCUGGGCAACAUUCCGAGGGGACCGUCCCCUCGGUGAUGUCGAAUGGGACCCA [A70G G74U] yielded a self-cleavage of 0.65.
Variant GGCCGGCAUGGUCCCAGCCUCCUCGCUGGCGCCGGCUGGGCAACAUUCCGAGGGGACCGUCCCCUCGGUGAUGACGAAUGGGACCCA [A70G G74A] has a self-cleavage of 0.453.
Work on GGCCGGCAUGGUCCCAGCCUCCUCGCUGGCGCCGGCUGGGCAACAUUCCGAGGGGACCGUCCCCUCGGUGAAGGCGAAUGGGACCCA [A70G U72A] yielded a self-cleavage of 0.594.
Work on GGCCGGCAUGGUCCCAGCCUCCUCGCUGGCGCCGGCUGGGCAACAUUCCGAGGGGACCGUCCCCUCGGUAGUGGCGCAUGGGACCCA [A71G A77C] yielded a self-cleavage of 0.45.
Work on GGCCGGCAUGGUCCCAGCCUCCUCGCUGGCGCCGGCUGGGCAACAUUCCGAGGGGACCGUCCCCUCGGUGAUGGCAAAUGGGACCCA [A70G G76A] yielded a self-cleavage of 0.92.
GGCCGGCAUGGUCCCAGCCUCCUCGCUGGCGCCGGCUGGGCAACAUUCCGAGGGGACCGUCCCCUCGGUGAUGGCGAUUGGGACCCA [A70G A78U] showed a self-cleavage of 0.151.
Variant GGCCGGCAUGGUCCCAGCCUCCUCGCUGGCGCCGGCUGGGCAACAUUCCGAGGGGACCGUCCCCUCGGUUAUGGCGAAUGGGGCCCA [A70U A83G] has a self-cleavage of 0.902.
GGCCGGCAUGGUCCCAGCCUCCUCGCUGGCGCCGGCUGGGCAACAUUCCGAGGGGACCGUCCCCUCGGUCAUGGCGAAUGGGACCAA [A70C C86A] gave a self-cleavage of 1.11.
In the case of GGCCGGCAUGGUCCCAGCCUCCUCGCUGGCGCCGGCUGGGCAACAUUCCGAGGGGACCGUCCCCUCGGUCAUGGCGAAUGGGACCUA [A70C C86U], the self-cleavage is reported as 0.852.
With GGCCGGCAUGGUCCCAGCCUCCUCGCUGGCGCCGGCUGGGCAACAUUCCGAGGGGACCGUCCCCUCGGGAAUGGCGAAUGGUACCCA [U69G G82U] the self-cleavage was 0.208.
In the case of GGCCGGCAUGGUCCCAGCCUCCUCGCUGGCGCCGGCUGGGCAACAUUCCGAGGGGACCGUCCCCUCGGGAAUGGCGAAUGGCACCCA [U69G G82C], the self-cleavage is reported as 0.429.
For GGCCGGCAUGGUCCCAGCCUCCUCGCUGGCGCCGGCUGGGCAACAUUCCGAGGGGACCGUCCCCUCGGUUAUGGCCAAUGGGACCCA [A70U G76C], the self-cleavage was 1.
In the case of GGCCGGCAUGGUCCCAGCCUCCUCGCUGGCGCCGGCUGGGCAACAUUCCGAGGGGACCGUCCCCUCGGUUAUGGCAAAUGGGACCCA [A70U G76A], the self-cleavage is reported as 1.02.
With GGCCGGCAUGGUCCCAGCCUCCUCGCUGGCGCCGGCUGGGCAACAUUCCGAGGGGACCGUCCCCUCGGUGAUGGCGGAUGGGACCCA [A70G A77G] the self-cleavage was 0.831.
Variant GGCCGGCAUGGUCCCAGCCUCCUCGCUGGCGCCGGCUGGGCAACAUUCCGAGGGGACCGUCCCCUCGGGAAUGGCGAAUGGGACCUA [U69G C86U] has a self-cleavage of 0.723.
GGCCGGCAUGGUCCCAGCCUCCUCGCUGGCGCCGGCUGGGCAACAUUCCGAGGGGACCGUCCCCUCGGUUAUGGCGCAUGGGACCCA [A70U A77C] showed a self-cleavage of 0.0978.
